From IntAct's records for PubMed 19474792

B1: DYRK-family kinase pom1 (Schizosaccharomyces pombe (strain ATCC 38366 / 972)), Q09690 (parent)
chain: MGYLQSQKAVSLGDENTDALFKLHTSNRKSANMFGIKSELLNPSELSAVGSYSNDICPNRQSSSSTAADTSPSTNASNTNISFPEQEHKDELFMNVEPKGVGSSMDNHAITIHHSTGNGLLRSSFDHDYRQKNSPRNSIHRLSNISIGNNPIDFESSQQNNPSSLNTSSHHRTSSISNSKSFGTSLSYYNRSSKPSDWNQQNNGGHLSGVISITQDVSSVPLQSSVFSSGNHAYHASMAPKRSGSWRHTNFHSTSHPRAASIGNKSGIPPVPTIPPNIGHSTDHQHPKANISGSLTKSSSESKNLSTIQSPLKTSNSFFKELSPHSQITLSNVKNNHSHVGSQTKSHSFATPSVFDNNKPVSSDNHNNTTTSSQVHPDSRNPDPKAAPKAVSQKTNVDGHRNHEAKHGNTVQNESKSQKSSNKEGRSSRGGFFSRLSFSRSSSRMKKGSKAKHEDAPDVPAIPHAYIADSSTKSSYRNGKKTPTRTKSRMQQFINWFKPSKERSSNGNSDSASPPPVPRLSITRSQVSREPEKPEEIPSVPPLPSNFKDKGHVPQQRSVSYTPKRSSDTSESLQPSLSFASSNVLSEPFDRKVADLAMKAINSKRINKLLDDAKVMQSLLDRACIITPVRNTEVQLINTAPLTEYEQDEINNYDNIYFTGLRNVDKRRSADENTSSNFGFDDERGDYKVVLGDHIAYRYEVVDFLGKGSFGQVLRCIDYETGKLVALKIIRNKKRFHMQALVETKILQKIREWDPLDEYCMVQYTDHFYFRDHLCVATELLGKNLYELIKSNGFKGLPIVVIKSITRQLIQCLTLLNEKHVIHCDLKPENILLCHPFKSQVKVIDFGSSCFEGECVYTYIQSRFYRSPEVILGMGYGTPIDVWSLGCIIAEMYTGFPLFPGENEQEQLACIMEIFGPPDHSLIDKCSRKKVFFDSSGKPRPFVSSKGVSRRPFSKSLHQVLQCKDVSFLSFISDCLKWDPDERMTPQQAAQHDFLTGKQDVRRPNTAPARQKFARPPNIETAPIPRPLPNLPMEYNDHTLPSPKEPSNQASNLVRSSDKFPNLLTNLDYSIISDNGFLRKPVEKSRP
partner: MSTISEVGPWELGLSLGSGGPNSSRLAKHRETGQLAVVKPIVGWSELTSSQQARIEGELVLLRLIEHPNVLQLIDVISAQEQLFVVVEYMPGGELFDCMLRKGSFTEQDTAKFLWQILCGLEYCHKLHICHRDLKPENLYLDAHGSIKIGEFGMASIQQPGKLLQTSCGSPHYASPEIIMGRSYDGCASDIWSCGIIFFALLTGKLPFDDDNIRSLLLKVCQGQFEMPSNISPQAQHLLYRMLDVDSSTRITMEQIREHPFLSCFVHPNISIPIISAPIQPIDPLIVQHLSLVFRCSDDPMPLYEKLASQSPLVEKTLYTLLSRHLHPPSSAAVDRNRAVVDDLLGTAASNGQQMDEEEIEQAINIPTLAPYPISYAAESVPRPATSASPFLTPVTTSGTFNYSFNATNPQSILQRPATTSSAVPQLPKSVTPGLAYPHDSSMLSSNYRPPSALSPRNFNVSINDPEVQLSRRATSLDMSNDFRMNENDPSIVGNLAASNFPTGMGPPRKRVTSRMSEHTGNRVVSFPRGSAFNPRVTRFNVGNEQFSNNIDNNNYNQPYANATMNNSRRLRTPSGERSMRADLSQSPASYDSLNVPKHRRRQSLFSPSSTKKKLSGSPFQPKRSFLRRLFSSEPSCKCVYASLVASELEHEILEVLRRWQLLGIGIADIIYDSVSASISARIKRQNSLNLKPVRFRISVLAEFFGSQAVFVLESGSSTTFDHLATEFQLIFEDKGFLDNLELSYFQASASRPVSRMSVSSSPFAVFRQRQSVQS

Variants of: B1
Settings: with cdr2_schpo cdr2, P87050

| Variant | effect of a mutation on the interaction |
| --- | --- |
| K728R | disrupting interaction |
